Data taken from patent publication US20120134979A1, “METHODS AND COMPOSITIONS FOR THE TREATMENT OF SICKLE CELL DISEASE” (priority 2010, published 2012).

Legend:
RBCs from SCD patients [1] = experiment: Hypoxia-induced 2,3-DPG in erythrocytes purified from SCD patients; type: cell-based, human; details: hypoxic conditions (2% oxygen)
Procedure: (§1) Isolation of total erythrocytes and treatment of human and mouse erythrocytes in vitro. Blood collected with heparin as an anti-coagulant was centrifuged at 240×g for 10 min at room temperature, followed by aspiration of plasma and white interface. Packed red blood cells (RBCs) were washed 3 times with culture media (F-10 Ham's with 1% penicillin/streptomycin, 10% fetal bovine serum (FBS), and re-suspended to 4% hematocrit (HCT). One ml of RBCs was added to each well of a 12-well plate. Normal RBCs purified from humans were treated with different concentrations of 5′-(N-ethyl-carboxamido) adenosine (NECA, an adenosine receptor agonist, Sigma-Aldrich, St. Louis, Mo.) ranging from 1-50 μM for different time points (from 1 to 18 hr) under normoxic conditions. Normal RBCs were treated with 10 μM NECA in the presence or absence of adenosine receptor antagonists, including theophylline, PSB36, SCH442416, MRS1754 and MRS3777 (Tocris Bioscience, St. Louis, Mo.) at 10 μM. In addition, normal RBCs were treated directly with the A2BR agonist (BAY 60-6583, Bayer HealthCare AG, Wuppertal, Germany) or the A2AR agonist (CGS21680) (Tocris). Similarly, the mouse RBCs were treated with or without NECA at 10 μM in the presence or absence of theophylline (10 μM). In addition, RBCs purified from 4 adenosine receptor deficient mice were treated with 10 μM NECA. After 18 hours, cells were collected and 2,3-DPG levels were measured as described below. RBCs were purified from SCD patients and treated with or without 10 μM NECA, 5 units/ml polyethylene glycol-adenosine deaminase (PEG-ADA) or 3 mmol/L glycolic acid (Sigma-Aldrich), 10 μM MRS1754 (A2BR antagonist) under ambient oxygen (normoxia) or different levels of hypoxic conditions (for 3 hours with shaking at 37° C. At the end of experiments, 2,3-DPG levels were measured and the percentage of sickled cells determined as described below.
2,3-DPG analysis. 2,3-DPG concentration in RBCs was detected by a commercially available kit (Roche, Nutley, N.J., and as described in Ericson A, de Verdier C H. A modified method for the determination of 2,3-diphosphoglycerate in erythrocytes. Scandinavian journal of clinical and laboratory investigation. 1972; 29(1):84-90).

SCD Tg mice [2] = experiment: Life span of RBCs in SCD Tg mice (in vivo biotin labelling); design: species or system mouse
Procedure: Measurement of life span of RBCs in SCD Tg mice. SCD Tg mice were treated with or without PEG ? ADA (2.5 unit/week) for 8 weeks. At 6 week-treatment, RBCs were labeled in vivo by using N-hydroxysuccinimide (NHS) biotin and the life span of circulating red blood cells was measured as described (Perumbeti, et al. A novel human gamma-globin gene vector for genetic correction of sickle cell anemia in a humanized sickle mouse model: critical determinants for successful correction. Blood. 2009; 114(6):1174-1185).
Specifically, 50 mg/kg of NHS biotin was injected into the retro-orbital plexus of SCD Tg mice (prepared in 100 μl sterile saline just prior to injection; initially dissolved at 50 mg/ml in N,—N,-dimethylacetamide) Blood samples (only 5 μl) were collected after first day of biotin-injection from tail vein by venipuncture to determine the percentage of RBCs labeled with biotin. Subsequently, 5 μl of blood were obtained by tail vein every 3 days for measurement of biotinylated RBCs until the 10th day. The percentage of biotinylated RBCs was calculated by determining the fraction of peripheral blood cells labeled with Ter-119 (to identify RBCs) that were also labeled with a streptavidin-conjugated fluorochrome by flow cytometry.

SCD Tg mice [3] = experiment: Organ weight, histology and heme content in SCD Tg mice after chronic treatment; type: in vivo, mouse
Procedure: Chronic PEG-ADA therapy. SCD transgenic mice, at eight weeks of age, were divided to two groups. One group was injected with 2.5 U PEG-ADA weekly for 8 weeks. This dosing protocol was designated SCD with PEG-ADA treatment regimen (SCD+PEG-ADA). Another group was injected with normal saline for 8 weeks; it was designated as SCD without PEG-ADA treatment regimen (SCD). Wild-type mice (C57Bl/6) used as control were injected with saline or PEG-ADA as with the SCD groups.
Chronic treatment with A2BR antagonist, PSB1115. SCD transgenic mice or wild type mice (eight weeks of age) were divided to two groups, one groups was injected with 200 μg of PSB1115 (an A2B receptor antagonist: obtained from Tocris Bioscience, St. Louis, Mo.) in PBS, daily for 8 weeks. One of groups was injected with saline.
Mouse organ isolation and histological analysis. Mice were anesthetized and body weight was determined. Organs were isolated and weighed. Half of each organ was quickly frozen in liquid nitrogen and then stored at −80° C. for heme content measurements as described below. The remaining half of each organ was fixed with 4% paraformaldehyde in PBS overnight at 4° C. Fixed tissues were rinsed in PBS, dehydrated through graded ethanol washes, and embedded in paraffin. 5 μm sections were collected on slides and stained with haematoxylin and eosin (H&E). Semiquantification of histological changes was analyzed by Image-Plus, Pro software.
Heme content measurement in multiple mouse tissues. Different organs were quickly removed and frozen in liquid nitrogen as described above. Heme was extracted from organs by homogenization with 1% Triton x-100 in PBS with 1× proteinase inhibitors (Roche) and the supernatant was collected following centrifugation at 20,000 g for 10 minutes at 4° C. Heme content was quantified following the instructions of QuantiChrom Heme Assay Kit (BioAssay Systems, Hayword, Calif.).

RBCs from SCD patients [4] = experiment: Hypoxia-induced sickling of RBCs from SCD patients; type: cell-based, human; details: RBCs from individuals with SCD, hypoxic conditions
Procedure: as §1
Morphological study of erythrocytes and quantification of reticulocytes by flow cytometry. Blood smears were stained using the WG16-500 ml kit (Sigma-Aldrich) for sickled cells and observed using 100× oil immersion objective of Olympus BX60 microscope. […] The percentages of sickled cells among the counted cells were calculated. Reticulocyte was labeled by Retic-COUNT Reagent (Becton Dickinson) and quantified by flow cytometry (Perumbeti, et al., A novel human gamma-globin gene vector for genetic correction of sickle cell anemia in a humanized sickle mouse model: critical determinants for successful correction. Blood. 2009; 114(6):1174-1185).

B1: PEG-ADA: polyethylene glycol-modified adenosine deaminase, a drug used to lower adenosine concentrations in ADA-deficient humans (protein, UniProt P56658 2-363, looked up)
Adenosine deaminase: AQTPAFNKPKVELHVHLDGAIKPETILYYGRKRGIALPADTPEELQNIIGMDKPLSLPEFLAKFDYYMPAIAGCREAVKRIAYEFVEMKAKDGVVYVEVRYSPHLLANSKVEPIPWNQAEGDLTPDEVVSLVNQGLQEGERDFGVKVRSILCCMRHQPSWSSEVVELCKKYREQTVVAIDLAGDETIEGSSLFPGHVKAYAEAVKSGVHRTVHAGEVGSANVVKEAVDTLKTERLGHGYHTLEDATLYNRLRQENMHFEVCPWSSYLTGAWKPDTEHPVVRFKNDQVNYSLNTDDPLIFKSTLDTDYQMTKNEMGFTEEEFKRLNINAAKSSFLPEDEKKELLDLLYKAYGMPSPASAEQCL
modifications: PEGylated
- hypoxia-mediated induction of 2,3-DPG (RBCs from SCD patients [1]): reduced
- fold increase of half-life of RBCs (SCD Tg mice [2]; chronic treatment vs untreated): 2 fold
- half-life of RBCs (SCD Tg mice [2]; chronic treatment, untreated 2 days): 4 days
- congestion, vascular damage and necrosis in multiple tissues (histology) (SCD Tg mice [3]; 8 weeks treatment, lung, liver, spleen (PSB1115 also kidney)): improved
- heme content in lung, liver and spleen (SCD Tg mice [3]; PEG-ADA enzyme therapy): significantly decreases
- microinfarction and cysts in renal cortex and congestion in renal medulla (SCD Tg mice [3]; PEG-ADA enzyme therapy): significantly improved
- ratio of spleen weight to body weight (SCD Tg mice [3]; chronic treatment, untreated 4.52±0.24, p<0.05, n=8): 2.48±0.36
- percentage of sickled cells (RBCs from SCD patients [4]): significantly reduced
